Experimental findings from the Immune Epitope Database (IEDB) are described below.

One test has as its target HLA-A*02:01. The experiment in a line: IEDB peptide-MHC binding, purified MHC/competitive/radioactivity; ≥ and ≤ were set here for values at or beyond the usual limits of such assays. The conditions noted are these: source organism: Mammarenavirus brazilense.
For the sequence TLFFTTTLFL, the IC50 came out at 423 nM. Same read-out and setting: with GLLEWIFRAL the figure was 439 nM; with QLIFFLTLA, 122 nM.

As to QLFSFFEEV, the concentration for half-maximal inhibition (IC50) is 12 nM. As to ALIAVSLIAA, the IC50 is 28 nM.

The test is the same for the next values; noted with them: source organism: Mammarenavirus choriomeningitidis.
For the sequence SLNQTVHSL, the IC50 turned out to be 53 nM.

The test is the same for the next values; noted with them: source organism: Mammarenavirus juninense.
Regarding GLFQFFVFLA, the IC50 worked out at 26 nM. On the same count and under the same terms, under GLHTEFQTV stands 129 nM. GLFQFFVFL: the IC50 was found to be 495 nM.

Staying with this test, now noted: source organism: Mammarenavirus lassaense.
Regarding FVFSTSFYL, the IC50 was found to be 2.5 nM.

For RLLGTFTWTL, the IC50 came to 5.1 nM.

Still in this test, the particulars now being: source organism: Mammarenavirus machupoense.
Turning to GLYMGNLSQL, the IC50 worked out at 72 nM. With NLTEMQEAV, the IC50 was determined as 547 nM. On the same count and under the same terms, under AMPGVLSYVI stands 2450 nM.

The test is the same for the next values; noted with them: source organism: Mammarenavirus whitewaterense.
As to QLDMIITAV, the IC50 worked out at 57 nM.

As for MIITAVNSLI, the IC50 turned out to be 438 nM. On to ALIAVSIISI, for which the half-inhibitory concentration (IC50) worked out at 246 nM.

The same test, now with this note: source organism: Vaccinia virus WR.
With SLSKQDISL, the IC50 was found to be 67 nM.

Consider QTSVFSATV, for which the IC50 came out at 1670 nM. On the same count and under the same terms, with YQYIFLSFFA the figure was 19 nM. PIKFIAEFLV: the IC50 came to 4460 nM. On the same count and under the same terms, with DALATFTVNI the figure was 178 nM; with FIYLLFASM, 173 nM; with STIATYIDAL, 2780 nM. Take LMIFISSFLL: the half-inhibitory concentration (IC50) stood at 27 nM. On the same count and under the same terms, under FLYNVYPGA stands 1.3 nM; under LIQEIVHEV, 33 nM.

As to KLITSAFDLL, the IC50 amounted to 457 nM. For YIIDKDTNSV, the IC50 turned out to be 30 nM. For QMTSTFIML, the IC50 worked out at 420 nM. Still for that read-out and setting: with FIADIGIGV the figure was 0.3 nM. With NLNIVRDMLV, the IC50 is 28 nM. Still for that read-out and setting: under SIFINKLNGA stands 1820 nM; under YIIKKNDIV, 2000 nM; under WLLGFIKCI, 25 nM. In the case of ILSAVAIFCI, the IC50 was 13 nM.

Take ALMRRIAVV: the IC50 was found to be 1.8 nM. Same read-out and setting: with AIYKLGSSI the figure was 1100 nM. For the sequence ILYDNVVTL, the half-maximal inhibitory concentration (IC50) came out at 0.51 nM. Still for that read-out and setting: with YILHSDYQL the figure was 13 nM. Same read-out and setting: under VIDEILFKV stands 1.3 nM; under ITLYDFDYYI, 29 nM. Turning to NLPEDIKRV, the IC50 came to 151 nM. Still for that read-out and setting: with DIIDFLEGA the figure was 445 nM; with KVHGLDVKNV, 1900 nM.

Turning to SVVVPIKFI, the concentration for half-maximal inhibition (IC50) is 2960 nM. Same read-out and setting: with ILYLYETYHL the figure was 9 nM; with LMSTLLIYL, 0.13 nM.

Consider KQDISLKRNA, for which the IC50 came out at 778 nM. The same measure, in the same setting: with NIEKYFTFLV the figure was 1450 nM; with MLNFSIYSV, 0.15 nM.

As to LIMYSVIGV, the IC50 worked out at 0.55 nM. For the sequence FLHESDPMVI, the half-maximal inhibitory concentration (IC50) amounted to 1.1 nM.

With FIHGGILYA, the IC50 is 8.8 nM. For the sequence NVVSSSTIA, the half-maximal inhibitory concentration (IC50) was found to be 588 nM. As for VLAIDFGNGA, the IC50 turned out to be 1440 nM. On the same count and under the same terms, with VVVPIKFIA the figure was 2840 nM; with KLFLIKKMA, 1070 nM; with TLYDFDYYII, 5.8 nM. QTCAGVIEYA: the IC50 stood at 359 nM. With YVMTMILFL, the half-maximal inhibitory concentration (IC50) stood at 0.065 nM.

With IITNAGTCTV, the IC50 is 454 nM. Same read-out and setting: under YVHGDTYSL stands 71 nM.

Consider ALGGSVNIWA, for which the IC50 was 1160 nM. Consider GLDVKNVQL, for which the IC50 is 278 nM. The same measure, in the same setting: under LTIMGVIFLI stands 9.4 nM. On the same count and under the same terms, under EVVDMLSTYL stands 1780 nM. On the same count and under the same terms, under FMMVLPGAA stands 6.7 nM; under SQYANCSSI, 81 nM. FMFIGSPMYL: the IC50 is 0.093 nM.

In the case of YIIKNTFNV, the half-inhibitory concentration (IC50) came to 0.54 nM. On the same count and under the same terms, with TLLCVLPAVV the figure was 2.5 nM. Still for that read-out and setting: under TLFLLFLEI stands 56 nM.

With GLCIRISMVI, the IC50 worked out at 2040 nM. On the same count and under the same terms, with GTINRILVIT the figure was 1230 nM. On the same count and under the same terms, with VLITMLSIIL the figure was 124 nM; with IMFKDDNIIM, 141 nM.

On to ALATFTVNI, for which the IC50 turned out to be 0.6 nM. The same measure, in the same setting: under VLMEAQQGI stands 7.1 nM; under RLNDFLGLL, 11 nM; under ALQNVMISI, 440 nM. For the sequence PLYEVNSTM, the IC50 is 4580 nM. For DMTKVDVEL, the IC50 stood at 3990 nM. For the sequence SLLRKFLYCI, the IC50 stood at 338 nM. Regarding LLSKNTFYL, the IC50 was found to be 3.1 nM. Same read-out and setting: under LVASLNPNM stands 387 nM; under TLFLILCYFI, 21 nM. Same read-out and setting: under HLGYIIRYPV stands 12 nM; under ALNHLVLSL, 0.45 nM; under FVLVDNVDFA, 75 nM. Same read-out and setting: under AVKDKNWTV stands 1810 nM; under QLVWENFLA, 22 nM. For TLYDFDYYI, the IC50 worked out at 0.18 nM. Turning to RVIGLCIRI, the half-maximal inhibitory concentration (IC50) came to 17 nM. For the sequence NIVWEKKSLV, the 50% inhibitory concentration (IC50) came out at 63 nM.

Regarding KLLISKGIEI, the IC50 came out at 132 nM. Take YLTVSFIDET: the IC50 is 4780 nM.

On to STYWVIPWEL, for which the IC50 came to 76 nM. With KIFETIYYGA, the half-inhibitory concentration (IC50) worked out at 604 nM.

With FVNDLMTMNI, the IC50 was determined as 178 nM. The same measure, in the same setting: under YLPKQPEGV stands 1.2 nM. Still for that read-out and setting: under PLGILSNYV stands 2710 nM; under VMTPSPFYTV, 26 nM.

Regarding RVYKTIWEI, the IC50 is 285 nM. Still for that read-out and setting: with VLGKVTINNL the figure was 1770 nM; with VMDNDDNIL, 719 nM.

With TLRHIIGLLM, the IC50 was found to be 748 nM. For IVIEAIHTV, the IC50 came out at 1410 nM. The same measure, in the same setting: under SMDTLLFFL stands 1 nM. Same read-out and setting: under GLLDRLYDL stands 0.13 nM; under SVVVPIKFIA, 4060 nM; under YLLDRGADI, 8.6 nM. For AASSTHRKV, the IC50 was 2640 nM. Still for that read-out and setting: under VIFLISVIVL stands 1540 nM; under YILCNMALL, 0.38 nM. With TLAPFNFLV, the IC50 amounted to 0.22 nM.

Regarding RIDKTMKYI, the IC50 is 2660 nM. With LMEVFPQLDL, the IC50 was found to be 244 nM. The same measure, in the same setting: under DTWGSDGNPI stands 1150 nM.

Consider FLLFLEITYT, for which the IC50 worked out at 6.9 nM.

Consider YLNTNKLFFA, for which the IC50 came out at 9.9 nM. On the same count and under the same terms, with YTIERIFNA the figure was 0.56 nM; with YIIRYPVKRI, 1020 nM. On the same count and under the same terms, under LMMSCISCI stands 12 nM. Same read-out and setting: with KILSASNRL the figure was 766 nM; with NTSWNDTVT, 146 nM. As for FTLIDIWFL, the IC50 stood at 0.49 nM. Still for that read-out and setting: under YITALNHLV stands 0.71 nM; under YLVPNVIGGV, 0.61 nM; under KLNKMTVEL, 6.5 nM.

As for TLWAIINTI, the IC50 amounted to 9.4 nM. Still for that read-out and setting: with HIFMASPENV the figure was 97 nM; with GILSNYVKTL, 312 nM; with GLHCDFACLM, 2800 nM. With AMTAFFGEL, the concentration for half-maximal inhibition (IC50) was 50 nM.

With ILMDSIFVST, the IC50 worked out at 45 nM. Same read-out and setting: with RLSLNRTIV the figure was 849 nM; with TIIFVLISI, 1180 nM; with CLCSFHNDAI, 2880 nM.

As to KIIETYLGRV, the IC50 was 30 nM.

With CIDGKWNPVL, the IC50 turned out to be 1860 nM. Still for that read-out and setting: under FVARVFLGL stands 19 nM. The same measure, in the same setting: under MVNTVLITV stands 121 nM; under SIYECITFL, 77 nM. The same measure, in the same setting: with LAKAIITPVV the figure was 2360 nM. Consider TMLSIILVII, for which the IC50 came to 154 nM. Still for that read-out and setting: under NIYLNFPWL stands 1210 nM. For LTDKKTFII, the IC50 is 881 nM.

Turning to NLFDIPLLTV, the IC50 was 0.33 nM. On to GLIKKPYRSI, for which the IC50 was 848 nM. Still for that read-out and setting: under VLVDNVDFA stands 20 nM; under YAVTKTDGI, 3060 nM. Still for that read-out and setting: with AIIDIEPDL the figure was 301 nM. Turning to YLYALYSPL, the IC50 came out at 0.13 nM. Same read-out and setting: with CLKDIIDFL the figure was 671 nM; with LMPIRTDTT, 2170 nM. Regarding FTDASTVASA, the IC50 was found to be 793 nM. On to VMVTITQNV, for which the IC50 is 37 nM.

Turning to RIPNSLHSL, the IC50 came to 670 nM.

Consider GLADAFILL, for which the IC50 was found to be 13 nM. The same measure, in the same setting: under LLMTSLQYA stands 2.5 nM. Still for that read-out and setting: with IMLNGIMYRL the figure was 14 nM; with ALAKNASEL, 73 nM.

For the sequence EQEFLTAAL, the 50% inhibitory concentration (IC50) came to 17 nM. On the same count and under the same terms, under TTLSRHIFMA stands 399 nM; under GLIYSMEFT, 1220 nM. For the sequence RTSQKGTVA, the IC50 amounted to 765 nM. Still for that read-out and setting: with LLSYYVVYV the figure was 0.46 nM; with RISMVISLL, 1460 nM. For IIDKDTNSVT, the IC50 came out at 2800 nM. Still for that read-out and setting: under VIGLCIRISM stands 735 nM; under VTLLCVLPA, 76 nM; under YMSFWCKSI, 26 nM.

As for AITDAAVAVA, the 50% inhibitory concentration (IC50) was 3830 nM. As to YIDAYVSRL, the half-maximal inhibitory concentration (IC50) came to 1.9 nM. MLFVNDLMT: the IC50 was determined as 747 nM. For RTFLIDLAFL, the IC50 was determined as 6.6 nM. GLYCYFTHL: the IC50 is 5.4 nM. Take YMDLSYHGV: the IC50 turned out to be 1.1 nM. Same read-out and setting: under LITMLSIIL stands 115 nM; under SVCNSLSQI, 1510 nM; under FMASPENVIL, 1070 nM.

YLLSGSDLFI: the IC50 came out at 0.25 nM. On to KLTDSLSSQM, for which the IC50 was found to be 935 nM.

On to HLMFYTLPI, for which the IC50 came out at 0.67 nM.

With CMSANEAAI, the IC50 was 16 nM.

Turning to IMLEGETKL, the IC50 worked out at 6.7 nM. As for RVFNEYGFV, the IC50 is 190 nM. On to ELQKFSFKI, for which the IC50 was determined as 167 nM. The same measure, in the same setting: under FTTTSEVVDM stands 1890 nM; under IMFTCMDPL, 2.1 nM.

For the sequence KMHDVIAPA, the IC50 turned out to be 2.6 nM.

Take GVSKKNIWL: the IC50 worked out at 3160 nM. Still for that read-out and setting: with SLLDEDSKI the figure was 99 nM.
